Results published in US20200317768A1 (published 2020).

T1: cynomolgus monkey FcγRIIa1 extracellular domain, C-terminal His-tag (cynomolgus monkey)
T1 construct: also called cyno FcγRIIa1; cynoFcgRIIa1
T1 chain: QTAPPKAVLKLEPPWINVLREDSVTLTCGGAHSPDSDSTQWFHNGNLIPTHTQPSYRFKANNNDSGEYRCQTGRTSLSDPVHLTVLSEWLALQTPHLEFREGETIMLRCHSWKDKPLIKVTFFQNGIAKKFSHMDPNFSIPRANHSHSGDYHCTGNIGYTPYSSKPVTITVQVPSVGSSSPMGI

T2: cynomolgus monkey FcγRIIa3 extracellular domain, C-terminal His-tag (cynomolgus monkey)
T2 construct: also called cyno FcγRIIa3; cynoFcgRIIa3
T2 chain: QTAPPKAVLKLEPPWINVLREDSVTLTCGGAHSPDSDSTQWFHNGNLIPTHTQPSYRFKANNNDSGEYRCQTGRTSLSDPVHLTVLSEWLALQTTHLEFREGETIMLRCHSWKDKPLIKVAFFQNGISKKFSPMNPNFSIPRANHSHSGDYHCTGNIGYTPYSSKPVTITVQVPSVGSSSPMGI

T3: human FcγRIIb extracellular domain, C-terminal His-tag (human, UniProt P31994 43-217)
T3 construct: also called human FcgRIIb; FcgRIIb
T3 sequence: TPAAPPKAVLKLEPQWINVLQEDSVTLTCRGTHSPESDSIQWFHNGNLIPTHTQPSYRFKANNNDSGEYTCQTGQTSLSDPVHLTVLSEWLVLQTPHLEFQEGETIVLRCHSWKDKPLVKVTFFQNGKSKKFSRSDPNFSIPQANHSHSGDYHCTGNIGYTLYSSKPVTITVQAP

T4: human FcγRIIaH extracellular domain, C-terminal His-tag (human, UniProt P12318 34-217)
T4 construct: also called human FcγRIIa (type H); FcgRIIaH
T4 sequence: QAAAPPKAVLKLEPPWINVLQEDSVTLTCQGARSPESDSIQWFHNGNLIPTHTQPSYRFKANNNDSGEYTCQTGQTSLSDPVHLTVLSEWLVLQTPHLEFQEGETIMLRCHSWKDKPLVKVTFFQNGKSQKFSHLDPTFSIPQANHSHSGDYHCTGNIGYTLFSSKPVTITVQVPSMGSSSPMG

T5: cynomolgus monkey FcγRIIb extracellular domain, C-terminal His-tag (cynomolgus monkey)
T5 construct: also called cyno FcγRIIb; cynoFcγRIIb
T5 chain: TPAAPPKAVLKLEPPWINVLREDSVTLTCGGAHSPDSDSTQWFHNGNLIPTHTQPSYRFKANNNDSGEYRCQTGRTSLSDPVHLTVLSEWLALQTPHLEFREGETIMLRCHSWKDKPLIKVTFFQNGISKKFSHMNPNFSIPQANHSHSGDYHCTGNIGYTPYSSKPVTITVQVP

T6: human FcγRIIaR extracellular domain, C-terminal His-tag (human, UniProt P12318 34-217)
T6 construct: also called human FcγRIIa (type R); FcgRIIaR
T6 chain: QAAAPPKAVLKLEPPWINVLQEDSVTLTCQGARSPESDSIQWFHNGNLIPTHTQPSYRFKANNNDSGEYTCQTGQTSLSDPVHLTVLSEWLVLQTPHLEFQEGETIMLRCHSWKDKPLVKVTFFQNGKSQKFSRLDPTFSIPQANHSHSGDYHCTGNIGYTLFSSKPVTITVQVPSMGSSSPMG

T7: cynomolgus monkey FcγRIIa2 extracellular domain, C-terminal His-tag (cynomolgus monkey)
T7 construct: also called cyno FcγRIIa2; cynoFcgRIIa2
T7 chain: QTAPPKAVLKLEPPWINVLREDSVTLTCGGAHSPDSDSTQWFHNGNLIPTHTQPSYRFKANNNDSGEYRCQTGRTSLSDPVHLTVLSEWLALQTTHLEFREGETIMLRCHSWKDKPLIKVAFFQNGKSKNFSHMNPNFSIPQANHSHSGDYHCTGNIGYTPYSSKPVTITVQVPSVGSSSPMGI


Columns and labels:
Assay in all cases: SPR (Biacore), antibody captured, FcgR analyte
[1] = target: T1, cynomolgus monkey FcγRIIa1 …
[2] = target: T2, cynomolgus monkey FcγRIIa3 …
[3] = target: T3, human FcγRIIb extracellular domain, …
[4] = target: T4, human FcγRIIaH extracellular domain, …
[5] = target: T5, cynomolgus monkey FcγRIIb extracellular …
[6] = target: T6, human FcγRIIaR extracellular domain, …
[7] = target: T7, cynomolgus monkey FcγRIIa2 …
[8] = target: T8, human FcγRIIIaV extracellular domain, C-terminal His-tag (human, UniProt P08637 17-208)
T8 construct: also called human FcgRIIIaV; FcgRIIIaV
T8 sequence (P08637 17-208 F176V): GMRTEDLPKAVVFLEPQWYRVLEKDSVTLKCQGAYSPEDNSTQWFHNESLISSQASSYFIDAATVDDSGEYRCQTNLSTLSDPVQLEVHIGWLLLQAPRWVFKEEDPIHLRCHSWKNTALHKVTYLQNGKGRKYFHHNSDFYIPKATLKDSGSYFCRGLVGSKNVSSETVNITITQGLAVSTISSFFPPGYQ

| Binder | Kd [1] [µM] | Kd [2] [µM] | Kd [3] [µM] | Kd [4] [µM] | Kd [5] [µM] | Kd [6] [µM] | Kd [7] [µM] | Kd [8] [µM] |
| --- | --- | --- | --- | --- | --- | --- | --- | --- |
| MS_M103205H795-SG1/M103202L889-SK1 (antibody, human IgG1, kappa, Parent of the Fc variants; also called MS1032LO06-SG1) heavy: not shown light: DIVMTQSPATLSLSPGERATLSCTSSQSVYHANWLSWFQQKPGQPPKLLIYWASTLAYGVPSRFSGSGSGTDFTLTISSLQPEDAATYYCAGGYGGGRYAFGQGTKVEIKRTVAAPSVFIFPPSDEQLKSGTASVVCLLNNFYPREAKVQWKVDNALQSGNSQESVTEQDSKDSTYSLSSTLTLSKADYEKHKVYACEVTHQGLSSPVTKSFNRGEC | 3.2 | 17 | 4.6 | 0.69 | 1.8 | 1.1 | 5.1 | 0.81 |
| M103205H795-MY001/M103202L889-SK1 (antibody, human IgG1, kappa, Substitutions introduced into M103205H795-SG1; expressed with M103202L889-SK1 as light chain) heavy: not shown light: DIVMTQSPATLSLSPGERATLSCTSSQSVYHANWLSWFQQKPGQPPKLLIYWASTLAYGVPSRFSGSGSGTDFTLTISSLQPEDAATYYCAGGYGGGRYAFGQGTKVEIKRTVAAPSVFIFPPSDEQLKSGTASVVCLLNNFYPREAKVQWKVDNALQSGNSQESVTEQDSKDSTYSLSSTLTLSKADYEKHKVYACEVTHQGLSSPVTKSFNRGEC | 29 | 15 | 7.7 | 0.032 | 1.8 | 8.2 | 3.6 | 18 |
| M103205H795-MY047/M103202L889-SK1 (antibody, human IgG1, kappa, Substitutions introduced into M103205H795-SG1; expressed with M103202L889-SK1 as light chain) heavy: not shown light: DIVMTQSPATLSLSPGERATLSCTSSQSVYHANWLSWFQQKPGQPPKLLIYWASTLAYGVPSRFSGSGSGTDFTLTISSLQPEDAATYYCAGGYGGGRYAFGQGTKVEIKRTVAAPSVFIFPPSDEQLKSGTASVVCLLNNFYPREAKVQWKVDNALQSGNSQESVTEQDSKDSTYSLSSTLTLSKADYEKHKVYACEVTHQGLSSPVTKSFNRGEC | 4.8 | 24 | 3.7 | 2.8 | 2.6 | 0.088 | 3.4 | 7.7 |

Results, then the binder that gave them:

| Kd [1] [µM] | Kd [2] [µM] | Kd [3] [µM] | Kd [4] [µM] | Kd [5] [µM] | Kd [6] [µM] | Kd [7] [µM] | Kd [8] [µM] | Binder |
| --- | --- | --- | --- | --- | --- | --- | --- | --- |
| 14 | 70 | 3.3 | 1.1 | 0.91 | 3.1 | 1.7 | 12 | M103205H795-MY048/M103202L889-SK1 (antibody, human IgG1, kappa, Substitutions introduced into M103205H795-SG1; expressed with M103202L889-SK1 as light chain) heavy: not shown light: DIVMTQSPATLSLSPGERATLSCTSSQSVYHANWLSWFQQKPGQPPKLLIYWASTLAYGVPSRFSGSGSGTDFTLTISSLQPEDAATYYCAGGYGGGRYAFGQGTKVEIKRTVAAPSVFIFPPSDEQLKSGTASVVCLLNNFYPREAKVQWKVDNALQSGNSQESVTEQDSKDSTYSLSSTLTLSKADYEKHKVYACEVTHQGLSSPVTKSFNRGEC |
| 2.7 | 6.6 | 1.5 | 1.8 | 0.85 | 78 | 2.3 | 7.8 | M103205H795-MY049/M103202L889-SK1 (antibody, human IgG1, kappa, Substitutions introduced into M103205H795-SG1; expressed with M103202L889-SK1 as light chain) heavy: not shown light: DIVMTQSPATLSLSPGERATLSCTSSQSVYHANWLSWFQQKPGQPPKLLIYWASTLAYGVPSRFSGSGSGTDFTLTISSLQPEDAATYYCAGGYGGGRYAFGQGTKVEIKRTVAAPSVFIFPPSDEQLKSGTASVVCLLNNFYPREAKVQWKVDNALQSGNSQESVTEQDSKDSTYSLSSTLTLSKADYEKHKVYACEVTHQGLSSPVTKSFNRGEC |
| 1.4 | 3.9 | 0.72 | 0.63 | 0.46 | 14 | 1.5 | 4.6 | M103205H795-MY052/M103202L889-SK1 (antibody, human IgG1, kappa, Substitutions introduced into M103205H795-SG1; expressed with M103202L889-SK1 as light chain) heavy: QVTLKESGPVLVKPTETLTLTCTVSGIDLSHDDISWVRQAPGKGLEWVGIISYAGSTYYASWAKGRLTISKDTSKNQVVLTMTNMDPVDTATYYCARGVPAYSHGGDLWGQGTLVTVSSASTKGPSVFPLAPSSKSTSGGTAALGCLVKDYFPEPVTVSWNSGALTSGVHTFPAVLQSSGLYSLSSVVTVPSSSLGTQTYICNVNHKPSNTKVDKKVEPKSCDKTHTCPPCPAPELLNGPSVFLFPPKPKDTLMISRTPEVTCVVVDVSEEDPEVKFNWYVDGVEVHNAKTKPREEQYNSTYRVVSVLTVLHQDWLNGKEYKCKVSNKALPAPIEKTISKAKGQPREPQVYTLPPSREEMTKNQVSLTCLVKGFYPSDIAVEWESNGQPENNYKTTPMVLDSDGSFFLYSKLTVDKSRWQQGNVFSCSVMHEALHNHYTQKSLSLSP light: DIVMTQSPATLSLSPGERATLSCTSSQSVYHANWLSWFQQKPGQPPKLLIYWASTLAYGVPSRFSGSGSGTDFTLTISSLQPEDAATYYCAGGYGGGRYAFGQGTKVEIKRTVAAPSVFIFPPSDEQLKSGTASVVCLLNNFYPREAKVQWKVDNALQSGNSQESVTEQDSKDSTYSLSSTLTLSKADYEKHKVYACEVTHQGLSSPVTKSFNRGEC |
| 4.6 | 18 | 2 | 22 | 1.9 | 2.8 | 4.8 | 74 | M103205H795-MY051/M103202L889-SK1 (antibody, human IgG1, kappa, Substitutions introduced into M103205H795-SG1; expressed with M103202L889-SK1 as light chain) heavy: QVTLKESGPVLVKPTETLTLTCTVSGIDLSHDDISWVRQAPGKGLEWVGIISYAGSTYYASWAKGRLTISKDTSKNQVVLTMTNMDPVDTATYYCARGVPAYSHGGDLWGQGTLVTVSSASTKGPSVFPLAPSSKSTSGGTAALGCLVKDYFPEPVTVSWNSGALTSGVHTFPAVLQSSGLYSLSSVVTVPSSSLGTQTYICNVNHKPSNTKVDKKVEPKSCDKTHTCPPCPAPELLNGPSVFLFPPKPKDTLMISRTPEVTCVVVDVSEEDGEVKFNWYVDGVEVHNAKTKPREEQYNSTYRVVSVLTVLHQDWLNGKEYKCKVSNKALPAPIEKTISKAKGQPREPQVYTLPPSREEMTKNQVSLTCLVKGFYPSDIAVEWESNGQPENNYKTTPPVLDSDGSFFLYSKLTVDKSRWQQGNVFSCSVMHEALHNHYTQKSLSLSP light: DIVMTQSPATLSLSPGERATLSCTSSQSVYHANWLSWFQQKPGQPPKLLIYWASTLAYGVPSRFSGSGSGTDFTLTISSLQPEDAATYYCAGGYGGGRYAFGQGTKVEIKRTVAAPSVFIFPPSDEQLKSGTASVVCLLNNFYPREAKVQWKVDNALQSGNSQESVTEQDSKDSTYSLSSTLTLSKADYEKHKVYACEVTHQGLSSPVTKSFNRGEC |
| 4.3 | 19 | 0.75 | 2.1 | 1.4 | 1.5 | 4.2 | 3.3 | M103205H795-MY050/M103202L889-SK1 (antibody, human IgG1, kappa, Substitutions introduced into M103205H795-SG1; expressed with M103202L889-SK1 as light chain) heavy: QVTLKESGPVLVKPTETLTLTCTVSGIDLSHDDISWVRQAPGKGLEWVGIISYAGSTYYASWAKGRLTISKDTSKNQVVLTMTNMDPVDTATYYCARGVPAYSHGGDLWGQGTLVTVSSASTKGPSVFPLAPSSKSTSGGTAALGCLVKDYFPEPVTVSWNSGALTSGVHTFPAVLQSSGLYSLSSVVTVPSSSLGTQTYICNVNHKPSNTKVDKKVEPKSCDKTHTCPPCPAPELLNGPSVFLFPPKPKDTLMISRTPEVTCVVVDVAEEDPEVKFNWYVDGVEVHNAKTKPREEQYNSTYRVVSVLTVLHQDWLNGKEYKCKVSNKALPAPIEKTISKAKGQPREPQVYTLPPSREEMTKNQVSLTCLVKGFYPSDIAVEWESNGQPENNYKTTPPVLDSDGSFFLYSKLTVDKSRWQQGNVFSCSVMHEALHNHYTQKSLSLSP light: DIVMTQSPATLSLSPGERATLSCTSSQSVYHANWLSWFQQKPGQPPKLLIYWASTLAYGVPSRFSGSGSGTDFTLTISSLQPEDAATYYCAGGYGGGRYAFGQGTKVEIKRTVAAPSVFIFPPSDEQLKSGTASVVCLLNNFYPREAKVQWKVDNALQSGNSQESVTEQDSKDSTYSLSSTLTLSKADYEKHKVYACEVTHQGLSSPVTKSFNRGEC |
